Laboratory results reported in article PMC6349121.

Target: GST-cIAP1R (cIAP1 RING domain, residues 556-C, with GST) (human) (UniProt Q13490)
Experiment: SPR; as a1, but UbcH5B–Ub variants diluted in running buffer containing 0.6 mM UbΔGG; GST-cIAP1R coupled to a CM-5 chip, 25 °C; steady-state affinity analysis

UbcH5B–Ub in the presence of 0.6 mM UbΔGG (UbcH5B–Ub with backside-bound UbΔGG) (from UniProt P62837 1-147; P0CG47 1-76; P0CG47 1-74) (complex)
Kd: 220 nM
